# Measurements: US10967068B2, “Stability-modulating linkers for use with antibody drug conjugates” (priority 2014, dated 2021)
# Like-named read-outs stand apart in the source and are kept apart here. *1 amine or outer side, *2 acyl side, *3 side chain or, on linkers, in order; H or OH if unused. Where a SMILES comes first, the peptide text is derived from it. [ ]: non-standard residue; d: D form. The star is where a group is joined. Dolaproine = CO[C@@H]([C@@H]1CCCN1)[C@@H](C)C(=O)O; Dil = CC[C@H](C)[C@H](NC)[C@@H](CC(=O)O)OC; PABC = O=C(OCc1ccc(N[*:1])cc1)[*:2]; Doe = c1ccc(C[C@H](N*)c2nccs2)cc1; Cit = NC(=O)NCCC[C@H](N)C(=O)O; X1 = NCCOCCOCCOCCOCCOCC*; Aib = CC(C)(N)C(=O)O; Ethyl(2-NH2) = NCC*; X3 = NCCOCC*
# Legend:
# mouse plasma enzyme = molecular target: T1, mouse plasma enzyme (Mus musculus, UniProt P23953); assay type: biochemical
# T1 construct: 100-200 ug of ADC were incubated in mouse plasma (provided by Bioreclamation); tissue Bioreclamation; host or cells: mouse plasma
# T1 sequence (P23953 19-554): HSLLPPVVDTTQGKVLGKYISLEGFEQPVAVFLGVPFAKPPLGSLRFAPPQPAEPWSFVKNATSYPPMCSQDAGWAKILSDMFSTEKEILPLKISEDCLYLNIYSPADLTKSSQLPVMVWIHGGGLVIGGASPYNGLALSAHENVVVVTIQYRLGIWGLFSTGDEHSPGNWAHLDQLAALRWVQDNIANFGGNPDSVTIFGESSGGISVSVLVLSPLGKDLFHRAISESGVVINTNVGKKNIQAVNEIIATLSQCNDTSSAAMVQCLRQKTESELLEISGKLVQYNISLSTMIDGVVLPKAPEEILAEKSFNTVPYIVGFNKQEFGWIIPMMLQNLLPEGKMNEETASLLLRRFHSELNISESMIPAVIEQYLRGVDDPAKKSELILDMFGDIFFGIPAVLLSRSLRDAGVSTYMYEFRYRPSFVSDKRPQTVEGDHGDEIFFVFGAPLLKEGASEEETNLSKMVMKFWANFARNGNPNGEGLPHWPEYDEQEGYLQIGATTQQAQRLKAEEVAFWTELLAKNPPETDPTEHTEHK
# Text: First, Balb/c serum (BioreclamationIVT) was depleted of IgG and albumin using commercially available MabSelect Protein A and Protein G resins (GE Healthcare), followed by Qproteome Murine Albumin Depletion Kit (Qiagen). The depleted serum was then subjected to sequential precipitation with ammonium sulfate. Fractions with the highest linker hydrolase activity were then applied to cation exchange HiTrap SP column (GE Healthcare) using step gradient elutions with sodium chloride. After that, SP fractions with the highest activity were applied to anion exchange HiTrap Q column (GE Healthcare) using step gradient elutions with sodium chloride. Fractions with the highest hydrolase activity were then combined and size fractionated using Superdex 200 column (GE Healthcare). […] To verify the correct identification of mouse Carboxylesterase 1C as the plasma enzyme responsible for linker cleavage, the recombinant protein was expressed in Expi 293 cells, and purified using a HIS tag following standard protocols.
# [1] = In Vitro Stability Assay—Mouse Plasma; assay type: in vitro ADME; conditions: for Conjugate stability (%): % DAR remaining after plasma 3 or 4.5 days; for DAR: before plasma incubation
# Description: 100-200 ug of ADC were incubated in mouse plasma (provided by Bioreclamation) supplemented with 1×PBS to the final ADC concentration of 0.125 mg/mL. Following incubation for 3-7 days, samples were diluted with an equal volume of 1×PBS, and ADCs were isolated using Trop2 antigen coupled to CNBr-activated Sepharose (GE Healthcare) using standard protocols. Drug-antibody ratios were assessed before and after in vitro exposure using HIC methods and mass spectrometry.
# DAR values for conjugates purified after plasma incubation were compared to DAR values prior to plasma treatment.
# [2] = Stability in SCID mouse plasma of linker-payloads conjugated to Combo_Rd4_0.6nM_C29 anti-BCMA antibody; assay type: in vitro ADME; conditions: LCQ05 tag
# [3] = Trop-2 antibody attachment position TG6, HIC or mass spectrometry
compound,measurement,setting,value
O=[N+]([O-])c1ccc(OP(=O)(O)Oc2ccc([N+](=O)[O-])cc2)cc1 [BNPP],inhibition of the mouse plasma enzyme (linker cleavage),mouse plasma enzyme,inhibited
"CC[C@H](C)[C@@H]([C@@H](CC(=O)N1CCC[C@H]1[C@H](OC)[C@@H](C)C(=O)N[C@@H](Cc1ccccc1)c1nccs1)OC)N(C)C(=O)[C@@H](NC(=O)C(C)(C)NC(=O)OCc1ccc(NC(=O)[C@H](CCCNC(N)=O)NC(=O)[C@@H](NC(=O)[C@@H](COCCN)NC(C)=O)C(C)C)cc1)C(C)C [Example 46, N-acetyl-O-(2-aminoethyl)-D-seryl-L-valyl-N-{4-[(8S,11S,12R)-11-[(2S)-butan-2-yl]-12-(2-{(2S)-2-[(1R,2R)-1-methoxy-2-methyl-3-oxo-3-{[(1S)-2-phenyl-1-(1,3-thiazol-2-yl)ethyl]amino}propyl]pyrrolidin-1-yl}-2-oxoethyl)-5,5,10-trimethyl-3,6,9-trioxo-8-(propan-2-yl)-2,13-dioxa-4,7,10-triazatetradec-1-yl]phenyl}-N˜5˜-carbamoylornithinamide] (Ac-[dS](Ethyl(2-NH2))V[Cit][PABC][Aib]V[Dil][Dolaproine]-Doe)",DAR after plasma incubation for 3 to 4.5 days,[1]; attachment position L11B,0.69
same,Conjugate stability (%),[1]; attachment position L11B,51%
same,DAR,[1]; attachment position L11B,1.36
"CC[C@H](C)[C@@H]([C@@H](CC(=O)N1CCC[C@H]1[C@H](OC)[C@@H](C)C(=O)N[C@@H](Cc1ccccc1)c1nccs1)OC)N(C)C(=O)[C@@H](NC(=O)C(C)(C)NC(=O)OCc1ccc(NC(=O)[C@H](CCCNC(N)=O)NC(=O)[C@@H](NC(=O)[C@H](COCCOCCN)NC(C)=O)C(C)C)cc1)C(C)C [Example 47, N-acetyl-O-[2-(2-aminoethoxy)ethyl]-L-seryl-L-valyl-N-{4-[(8S,11S,12R)-11-[(2S)-butan-2-yl]-12-(2-{(2S)-2-[(1R,2R)-1-methoxy-2-methyl-3-oxo-3-{[(1S)-2-phenyl-1-(1,3-thiazol-2-yl)ethyl]amino}propyl]pyrrolidin-1-yl}-2-oxoethyl)-5,5,10-trimethyl-3,6,9-trioxo-8-(propan-2-yl)-2,13-dioxa-4,7,10-triazatetradec-1-yl]phenyl}-N˜5˜-carbamoylornithinamide] (Ac-S(X3)V[Cit][PABC][Aib]V[Dil][Dolaproine]-Doe)",DAR after plasma incubation for 3 to 4.5 days,[1]; attachment position L11B,0.40
same,Conjugate stability (%),[1]; attachment position L11B,20%
same,DAR,[1]; attachment position L11B,1.96
"CC[C@H](C)[C@@H]([C@@H](CC(=O)N1CCC[C@H]1[C@H](OC)[C@@H](C)C(=O)N[C@@H](Cc1ccccc1)c1nccs1)OC)N(C)C(=O)[C@@H](NC(=O)C(C)(C)NC(=O)OCc1ccc(NC(=O)[C@H](CCCNC(N)=O)NC(=O)[C@@H](NC(=O)[C@H](COCCOCCOCCOCCOCCOCCN)NC(C)=O)C(C)C)cc1)C(C)C [Example 48, N-acetyl-O-(17-amino-3,6,9,12,15-pentaoxaheptadec-1-yl)-L-seryl-L-valyl-N-{4-[(8S,11S,12R)-11-[(2S)-butan-2-yl]-12-(2-{(2S)-2-[(1R,2R)-1-methoxy-2-methyl-3-oxo-3-{[(1S)-2-phenyl-1-(1,3-thiazol-2-yl)ethyl]amino}propyl]pyrrolidin-1-yl}-2-oxoethyl)-5,5,10-trimethyl-3,6,9-trioxo-8-(propan-2-yl)-2,13-dioxa-4,7,10-triazatetradec-1-yl]phenyl}-N˜5˜-carbamoylornithinamide] (Ac-S(X1)V[Cit][PABC][Aib]V[Dil][Dolaproine]-Doe)",DAR after plasma incubation for 3 to 4.5 days,[1]; attachment position L11B,0
same,Conjugate stability (%),[1]; attachment position L11B,0%
same,DAR,[1]; attachment position L11B,1.94
Cl.NCCc1ccc(S(=O)(=O)F)cc1 [Pefabloc],inhibition of the mouse plasma enzyme (linker cleavage),"mouse plasma enzyme; 1 mM, in vitro stability assay with anti-Trop2 L11B C6 vc0101 conjugate as substrate",inhibited
Ac-Lys-Val-Cit-PABC-0101 [reference compound],DAR after plasma incubation for 3 to 4.5 days,[1]; attachment position H16,1.96
same,Conjugate stability (%),[1]; attachment position H16,100%
same,DAR,[1]; attachment position H16,1.94
same,DAR,"[2]; Combo_Rd4_0.6nM_C29 anti-BCMA antibody, before incubation, HIC",2.0
same,Conjugate stability (%),"[2]; anti-BCMA antibody, % DAR remaining after SCID mouse plasma 4.5 days",99%
same,DAR after plasma incubation for 4.5 days,"[2]; anti-BCMA antibody, SCID mouse plasma",1.98
"AcLys-vc0101 [Example 11, reference compound]",DAR,[1]; attachment position H7C,1.90
same,DAR,[1]; attachment position H8A,1.82
same,DAR,[1]; attachment position H10,1.62
same,DAR,[1]; attachment position L11B,1.87
same,DAR,[1]; attachment position LCQ04,1.88
"AcLys-vcMMAD [Example 9, reference compound]",DAR,[1]; [3],1.97
"C6vc0101 [Example 10, reference compound]",DAR,[1]; [3],1.98
same,DAR,[1]; attachment position H7C,1.52
same,DAR,[1]; attachment position H8A,1.78
same,DAR,[1]; attachment position H10,1.72
same,DAR,[1]; attachment position H16,2.00
same,DAR,[1]; attachment position L11B,1.88
same,DAR,[1]; attachment position LCQ04,1.90
same,DAR,[1]; attachment position N297A,1.89
same,DAR,[1]; attachment position N297Q,3.94
